# US20160060340A1 (Kyowa Kirin, published 2016)
# Residue numbers refer to the chain shown, from its start. Names and notes keep the numbering of the source.
# B1: C101A (antibody, V domains shown)
# VH: EVQLVESGGGLVQPGGSLRLSCAASGFTFTDFYMNWVRQPPGKAPEWLGFIRNKANGYTTEFNPSVKGRFTISRDNSKNSLYLQMNSLKTEDTATYYCARALYGYAYYYVMDAWGQGTLVTVSS
# VL: DIQMTQSPSSLSASLGDRVTITCRTSEDIFRNLAWYQQKPGKAPKLLIYDTNRLADGVPSRFSGSGSGTDYTLTISSLQPEDFATYFCQQYDNYPLTFGQGTKLEIK
# notes: also called HV7LV3-CDRH3-Cys101 modified antibody C101A; antibody in which Cys101 was modified with Ala
# B2: HuRA15-7CTDF antibody (antibody, human IgG1, V domains shown)
# VH: B1 VH with A101T
# VL: B1 VL
# notes: defucosylated, made in CHO/Ms704 cells; also called defucosylated HuRA15-7CT
# B3: HV7LV3-CDRH3-Cys101 modified antibody C101F (antibody, human IgG1, V domains shown)
# VH: B1 VH with A101F
# VL: B1 VL
# notes: Human IgG1 kappa constant regions of pKANTEX93; transiently made in FUT8 double-knockout CHO-K1 cells; also called antibody in which Cys101 was modified with Phe
# B4: HV7LV3-CDRH3-Cys101 modified antibody C101M (antibody, human IgG1, V domains shown)
# VH: B1 VH with A101M
# VL: B1 VL
# notes: Human IgG1 kappa constant regions of pKANTEX93; transiently made in FUT8 double-knockout CHO-K1 cells; also called antibody in which Cys101 was modified with Met
# B5: C101P (antibody, V domains shown)
# VH: B1 VH with A101P
# VL: B1 VL
# notes: also called HV7LV3-CDRH3-Cys101 modified antibody C101P; antibody in which Cys101 was modified with Pro
# B6: HV7LV3-CDRH3-Cys101 modified antibody C101T (HuRA15-7CT) (antibody, human IgG1, V domains shown)
# VH: B1 VH with A101T
# VL: B1 VL
# modifications: Expressed in FUT8-knockout CHO-K1 cells (Fc glycan without core fucose); not carried by the letters.
# notes: Human IgG1 kappa constant regions of pKANTEX93; transiently made in FUT8 double-knockout CHO-K1 cells; Same vector as HuRA15-7CTDF; also called antibody in which Cys101 was modified with Thr
# B7: HV7LV3-CDRH3-Cys101 modified antibody C101V (antibody, human IgG1, V domains shown)
# VH: B1 VH with A101V
# VL: B1 VL
# notes: Human IgG1 kappa constant regions of pKANTEX93; transiently made in FUT8 double-knockout CHO-K1 cells; also called antibody in which Cys101 was modified with Val
# B8: modified humanized RA15-7 antibody HV10LV4 (antibody, human IgG1, V domains shown)
# VH: B1 VH with L18M, V37I, P41A, A101C
# VL: B1 VL with K45Q
# notes: Human IgG1 kappa constant regions of pKANTEX93; transiently made in FUT8 double-knockout CHO-K1 cells
# B9: HV7LV3-CDRH3-Cys101 modified antibody C101Q (antibody, human IgG1, V domains shown)
# VH: B1 VH with A101Q
# VL: B1 VL
# notes: Human IgG1 kappa constant regions of pKANTEX93; transiently made in FUT8 double-knockout CHO-K1 cells; also called antibody in which Cys101 was modified with Gln
# B10: HV7LV3-CDRH3-Cys101 modified antibody C101I (antibody, human IgG1, V domains shown)
# VH: B1 VH with A101I
# VL: B1 VL
# notes: Human IgG1 kappa constant regions of pKANTEX93; transiently made in FUT8 double-knockout CHO-K1 cells; also called antibody in which Cys101 was modified with Ile
# B11: modified humanized RA15-7 antibody HV10LV3 (antibody, human IgG1, V domains shown)
# VH: B1 VH with L18M, V37I, P41A, A101C
# VL: B1 VL
# notes: as for B8
# B12: C101G (antibody, V domains shown)
# VH: B1 VH with A101G
# VL: B1 VL
# notes: also called HV7LV3-CDRH3-Cys101 modified antibody C101G; antibody in which Cys101 was modified with Gly
# B13: modified humanized RA15-7 antibody HV10LV2 (antibody, human IgG1, V domains shown)
# VH: B1 VH with L18M, V37I, P41A, A101C
# VL: B1 VL with L15V, K45Q, F87Y
# notes: as for B8
# B14: modified humanized RA15-7 antibody HV10LV6 (antibody, human IgG1, V domains shown)
# VH: B1 VH with L18M, V37I, P41A, A101C
# VL: B1 VL with A43S, K45Q, T85G
# notes: as for B8
# B15: MORAb-003 antibody (antibody, V domains shown)
# VH: EVQLVESGGGVVQPGRSLRLSCSASGFTFSGYGLSWVRQAPGKGLEWVAMISSGGSYTYYADSVKGRFAISRDNAKNTLFLQMDSLRPEDTGVYFCARHGDDPAWFAYWGQGTPVTVSS
# VL: DIQLTQSPSSLSASVGDRVTITCSVSSSISSNNLHWYQQKPGKAPKPWIYGTSNLASGVPSRFSGSGSGTDYTFTISSLQPEDIATYYCQQWSSYPYMYTFGQGTKVEIKR
# B16: ChRA15-7DF antibody (antibody, human IgG1, V domains shown)
# VH: EVKLLESGGGLVQPGGSMRLSCAASGFTFTDFYMNWIRQPAGKAPEWLGFIRNKANGYTTEFNPSVKGRFAISRDNTQNMLYLQMNTLRAEDTATYYCARCLYGYAYYYVMDAWGQGTSVTVSS
# VL: DIQMTQSPASLSASLGETVTIECRTSEDIFRNLAWYQQRPGNSPQLLIYDTNRLADGVPSRFSGSGSGTQYSLKINSLQSEDVAGYFCQQYDNYPLTFGSGTKLEIK
# notes: sugar chain without fucose, made in CHO/Ms704 cells; also called defucosylated rat/human chimeric RA15-7
# What was measured:
# FOLR1-mycHis [1] = target: T1, FOLR1-mycHis (human, UniProt P15328 25-233); assay: SPR (Biacore), antibody captured by Human Antibody Capture Kit on a CM5 chip, FOLR1-mycHis as analyte (12.3-1000 ng/mL, as in Example 29); affinity relative to ChRA15-7Acc = 100
# T1 construct: Secreted from CHO/DG44 cells, purified on Ni-NTA; Residues 1-233 include the native signal peptide; also called non-reducing FOLR1-mycHis; recombinant protein having myc and His tag at the C-terminus of FOLR1 (1-233 amino acids); not shown: myc and His tag at the C-terminus
# T1 sequence (P15328 25-233): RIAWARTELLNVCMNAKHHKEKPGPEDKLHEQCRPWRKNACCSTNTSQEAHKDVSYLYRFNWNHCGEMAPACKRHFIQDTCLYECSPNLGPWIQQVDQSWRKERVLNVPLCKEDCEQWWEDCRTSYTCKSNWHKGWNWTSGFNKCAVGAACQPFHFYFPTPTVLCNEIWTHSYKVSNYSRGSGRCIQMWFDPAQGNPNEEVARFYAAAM
# Protocol: (§1) The affinities of ChRA15-7Acc antibody and MORAb-003 antibody for FOLR1 were measured by a surface plasmon resonance method. The measurement was carried out in the same manner as in Example 16, except that a Human Antibody Capture Kit (GE Healthcare) was immobilized onto the CM5 chip by amine coupling and FOLR1-mycHis prepared by five-step dilution (12.3, 37, 111, 333, 1000 ng/mL) was applied as an analyte.
# (§2) Affinities of HV7LV3-CDRH3-Cys101 modified antibodies for FOLR1 were measured by the surface plasmon resonance method in the same manner as in Example 29.
# [2] = target: T2, cynomolgus monkey FOLR1-Fc (cynomolgus monkey; human); assay: ELISA, antigen coated at 2 ug/mL, antibody 1.4-1000 ng/mL, goat anti-human kappa-HRP, ABTS, absorbance at 415 nm [d]
# T2 construct: Expressed in CHO/Ms704 cells; also called CyFOLR1-Fc; not shown: Human IgG1 Fc (Hinge region and CH2-CH3 region) from pKANTEX93, added to the C-terminus
# T2 sequence (chain, as listed by the source): as the sequence (P15328 25-233) above, with I2T, W4R, R37K, A146P, H171Y counted along it
# Protocol: (§3) First, each 50 μL/well of FOLR1-Fc, FOLR2-Fc, FOLR3-Fc, and cynomolgus monkey FOLR1-Fc which were prepared at a concentration of 2 μg/mL using PBS was added in a 96-well plate for ELISA and incubated at 4° C. overnight. It was washed with PBS, and then 200 μL/well of 1% BSA/PBS wad added at room temperature for 1 hour for blocking. It was washed with PBS again, and each 50 μL/well of HuRA15-7CTDF antibody, ChRA15-7DF antibody, MORAb-003DF antibody, and defucosylated anti-DNP human IgG1 (DNPDF) antibody as a negative control which were prepared by seven-step dilution (1.4, 4.1, 12, 37, 111, 333, 1000 ng/mL) in 1% BSA/PBS was added, and allowed to react at room temperature for 1 hour.
# (§4) Each well was washed with 0.05% tween20/PBS, and then 50 μL/well of Goat anti-Human kappa-HRP (Southern Biotech) which was diluted 2000-fold using 1% BSA/PBS was added and allowed to react at room temperature for 1 hour. Each well was washed with PBS, and then 50 μL/well of ABTS substrate solution was added, and allowed to react at room temperature. After sufficient color development was confirmed, 5% SDS solution was added to terminate the reaction, and absorbance at 415 nm was measured.
# FOLR1-mycHis [3] = target: T1, FOLR1-mycHis; assay: surface plasmon resonance as in Example 29
# Protocol: as §1, §2
# FOLR1-mycHis [4] = target: T1, FOLR1-mycHis; assay: SPR as in Example 29, antibody captured, FOLR1-mycHis as analyte
# Protocol: as §1, §2
# FOLR1-mycHis [5] = target: T1, FOLR1-mycHis; assay: SPR (Biacore T100), antibody captured with Human Antibody Capture Kit, FOLR1-mycHis as analyte, 1:1 binding model
# Protocol: The affinity was analyzed from association constant (Ka) and dissociation constant (Kd) by Single-cycle kinetics. Kinetic constants (ka, kd, KD) were calculated by 1:1 binding model using a Biacore T-100 Evaluation software (GE Healthcare).
# as §1
# [6] = target: T2, cynomolgus monkey FOLR1-Fc; assay: ELISA, antigen coated at 2 ug/mL, antibody 1.4-1000 ng/mL, goat anti-human kappa-HRP, ABTS, absorbance at 415 nm [c]
# Protocol: as §3, §4
binder,measurement,setting,value
B1,binding result,FOLR1-mycHis [1],binds
B2,binding result,[2],binds
B3,affinity as percent of the affinity of ChRA15-7Acc antibody,FOLR1-mycHis [3],≥ 50 % of the affinity of ChRA15-7Acc antibody
same,affinity as percent of the affinity of ChRA15-7Acc antibody,FOLR1-mycHis [4],80%
B4,affinity as percent of the affinity of ChRA15-7Acc antibody,FOLR1-mycHis [3],≥ 50 % of the affinity of ChRA15-7Acc antibody
same,affinity as percent of the affinity of ChRA15-7Acc antibody,FOLR1-mycHis [4],59%
B5,binding result,FOLR1-mycHis [1],no binding
B6,affinity as percent of the affinity of ChRA15-7Acc antibody,FOLR1-mycHis [3],≥ 50 % of the affinity of ChRA15-7Acc antibody
same,affinity as percent of the affinity of ChRA15-7Acc antibody,FOLR1-mycHis [4],88%
B7,affinity as percent of the affinity of ChRA15-7Acc antibody,FOLR1-mycHis [3],≥ 50 % of the affinity of ChRA15-7Acc antibody
same,affinity as percent of the affinity of ChRA15-7Acc antibody,FOLR1-mycHis [4],55%
B8,affinity as percent of the affinity of ChRA15-7Acc,FOLR1-mycHis [4],~70%
B9,affinity as percent of the affinity of ChRA15-7Acc antibody,FOLR1-mycHis [3],≥ 50 % of the affinity of ChRA15-7Acc antibody
same,affinity as percent of the affinity of ChRA15-7Acc antibody,FOLR1-mycHis [4],64%
B10,affinity as percent of the affinity of ChRA15-7Acc antibody,FOLR1-mycHis [3],≥ 50 % of the affinity of ChRA15-7Acc antibody
same,affinity as percent of the affinity of ChRA15-7Acc antibody,FOLR1-mycHis [4],73%
B11,affinity as percent of the affinity of ChRA15-7Acc,FOLR1-mycHis [4],~70%
B12,binding result,FOLR1-mycHis [1],binds
B13,affinity as percent of the affinity of ChRA15-7Acc,FOLR1-mycHis [4],~70%
B14,affinity as percent of the affinity of ChRA15-7Acc,FOLR1-mycHis [4],~70%
B15,Kd,FOLR1-mycHis [5],57 nM
same,koff,FOLR1-mycHis [5],0.0259 s⁻¹
B16,binding result,[6],binds
